Data on two substances can be found in publication PMC9922815.

pKd: −log10 of the molar value.

The assay has as its target rabbit skeletal muscle F-actin (rabbit) (UniProt P68135). The experiment in a line: co-sedimentation; high-speed F-actin cosedimentation: 5 uM UtrN-R3 incubated 30 min with 0-160 uM phalloidin-stabilized F-actin, 100,000g for 20 min; F-buffer (4.5 mM Tris-HCl pH 8.0, 0.18 mM CaCl2, 50 mM KCl, 2 mM MgCl2, 1.2 mM ATP, 0.5 mM DTT); bound and free by densitometry of Coomassie gels, hyperbola fit.

One may read the pKd as the negative decadic logarithm of the Kd, by convention in mol/L. Read a low pKd as a large Kd. In turn, “UtrN-R3 WT, insect cell-derived (mouse utrophin fragment encoding the N terminus through spectrin repeat 3, phosphorylated) (from UniProt E9Q6R7 1-3430) (domain or fragment)” gave a pKd of 4.07. Next, “UtrN-R3 WT, bacterially derived (mouse utrophin fragment encoding the N terminus through spectrin repeat 3, not phosphorylated) (from UniProt E9Q6R7 1-3430) (domain or fragment)”: 3.98.
